Data reported in publication doi:10.1101/586255v1.

Test system: N[C@@H](CO)C(=O)O
Assay: purified protein, by the assay type
Details: pH 7.6; 37.0 °C

Work on HsSerRS (Homo sapiens) yielded a Km of 1083 ± 156 µM.
